Experimental findings from patent US20210371517A1 are described below.

Where two headings read alike, the source gives them in different places.

What all share (assay): cell-based or functional assay
Test [1] deals with CD171 (L1CAM) (human) (UniProt P32004).
The target is the same in test [2]. This is another data set of the same source.
The target in a further test is Fas (CD95) (human) (UniProt P25445).
Sequence of UniProt P25445 (P25445 26-335): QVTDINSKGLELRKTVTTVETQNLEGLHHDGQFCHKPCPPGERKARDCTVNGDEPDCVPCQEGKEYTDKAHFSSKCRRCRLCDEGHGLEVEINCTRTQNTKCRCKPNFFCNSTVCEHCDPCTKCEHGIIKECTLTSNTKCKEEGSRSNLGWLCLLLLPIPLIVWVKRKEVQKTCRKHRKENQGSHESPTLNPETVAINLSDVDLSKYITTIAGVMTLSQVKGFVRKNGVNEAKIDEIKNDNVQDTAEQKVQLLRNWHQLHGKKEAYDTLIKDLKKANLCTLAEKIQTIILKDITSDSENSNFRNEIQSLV

Sequence of CE7scFv-IgG4hinge-CD28tm/cyto-4-1BB-zeta (short) CD171-specific chimeric receptor with two costimulatory domains (main): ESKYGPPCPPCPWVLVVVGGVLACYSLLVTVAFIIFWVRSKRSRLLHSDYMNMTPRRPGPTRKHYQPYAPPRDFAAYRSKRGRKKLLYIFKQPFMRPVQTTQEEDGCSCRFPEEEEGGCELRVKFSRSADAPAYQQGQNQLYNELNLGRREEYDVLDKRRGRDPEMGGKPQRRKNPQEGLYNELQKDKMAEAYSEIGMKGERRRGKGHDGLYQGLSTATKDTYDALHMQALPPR
Sequence of UniProt P32004 (P32004 20-1257): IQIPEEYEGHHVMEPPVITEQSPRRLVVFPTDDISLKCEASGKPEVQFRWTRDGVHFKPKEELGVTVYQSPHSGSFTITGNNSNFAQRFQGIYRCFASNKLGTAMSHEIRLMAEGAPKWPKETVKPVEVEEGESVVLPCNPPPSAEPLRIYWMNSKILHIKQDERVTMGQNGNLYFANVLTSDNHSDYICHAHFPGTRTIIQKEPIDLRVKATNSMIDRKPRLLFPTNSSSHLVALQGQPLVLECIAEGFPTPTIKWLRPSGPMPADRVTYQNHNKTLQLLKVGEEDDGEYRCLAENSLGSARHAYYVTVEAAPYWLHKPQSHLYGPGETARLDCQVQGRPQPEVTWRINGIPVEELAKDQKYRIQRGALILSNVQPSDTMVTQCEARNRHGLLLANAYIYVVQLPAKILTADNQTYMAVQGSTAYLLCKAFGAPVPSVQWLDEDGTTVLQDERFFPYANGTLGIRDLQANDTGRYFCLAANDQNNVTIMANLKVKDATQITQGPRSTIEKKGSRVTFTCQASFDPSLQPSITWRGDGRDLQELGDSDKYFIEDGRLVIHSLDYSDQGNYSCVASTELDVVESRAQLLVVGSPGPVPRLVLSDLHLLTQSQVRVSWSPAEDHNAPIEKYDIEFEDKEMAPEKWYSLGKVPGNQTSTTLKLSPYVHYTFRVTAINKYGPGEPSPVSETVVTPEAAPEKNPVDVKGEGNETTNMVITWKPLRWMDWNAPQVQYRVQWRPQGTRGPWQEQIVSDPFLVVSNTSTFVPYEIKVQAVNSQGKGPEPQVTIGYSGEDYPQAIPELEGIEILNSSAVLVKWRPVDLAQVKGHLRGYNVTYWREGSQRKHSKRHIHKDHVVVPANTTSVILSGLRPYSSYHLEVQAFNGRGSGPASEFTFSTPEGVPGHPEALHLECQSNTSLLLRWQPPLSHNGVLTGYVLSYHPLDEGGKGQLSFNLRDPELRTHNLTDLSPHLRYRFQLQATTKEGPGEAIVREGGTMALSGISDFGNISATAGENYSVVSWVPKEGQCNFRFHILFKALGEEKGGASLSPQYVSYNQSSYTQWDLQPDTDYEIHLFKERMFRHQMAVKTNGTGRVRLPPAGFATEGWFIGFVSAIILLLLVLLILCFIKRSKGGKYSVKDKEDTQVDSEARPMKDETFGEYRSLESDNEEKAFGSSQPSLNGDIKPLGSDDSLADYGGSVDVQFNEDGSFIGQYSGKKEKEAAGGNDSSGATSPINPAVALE

Regarding “Ce7scFv-IgG4hinge-CH2-CH3-CD28tm/4-1BB-zeta (long construct) CD171-specific chimeric receptor”, in the test with CD171 (L1CAM) (human) [1], the % CD25+CD69+ T cells after round III of tumor cell co-culture was 66%. In the test with CD171 (L1CAM) (human) [2], this substance came in with a % CD25+CD69+ T cells, stress test round I with Be2 cells of 79.4%; a % CD25+CD69+ T cells, stress test round II with Be2 cells of 74%; a % CD25+CD69+ T cells, stress test round III with Be2 cells of 65.7%; an IFN-γ secretion in Be2 co-culture, fold over 2G-CAR(SS) of 8.4 fold. In addition, in the test with CD171 (L1CAM) (human) [2], the IL-2 secretion in Be2 co-culture, fold over 2G-CAR(SS) turned out to be 6.3 fold; the TNF-α secretion in Be2 co-culture, fold over 2G-CAR(SS) stood at 6.1 fold; the percentage of cells expressing activation marker CD137, fold over CD171-CAR(SS) stood at 5.7 fold; the phospho-ERK level after co-culture with CD171+ Be2 cells, fold over CD171-CAR(SS) was found to be 3.1 fold.
“CE7scFv-IgG4hinge-CD28tm/cyto-4-1BB-zeta (short) CD171-specific chimeric receptor with two costimulatory domains”: in the test with CD171 (L1CAM) (human) [2], the % CD25+CD69+ T cells after round III of tumor cell co-culture worked out at 60%; the IL-2 secretion in Be2 co-culture, fold over 2G-CAR(SS) amounted to 5.1 fold; the TNF-α secretion in Be2 co-culture, fold over 2G-CAR(SS) came to 2.5 fold; the cytolytic activity against Be2 targets, fold over 2G-CAR(SS) came out at 1.3 fold. In addition, the induction of CD137 expression upon tumor contact, fold over 2G-CAR(SS) with CD171 (L1CAM) (human) [2] turned out to be 8.4 fold.
In the case of “Fas ligand (FasL, CD178) (from UniProt P48023 1-281)”, in the test with Fas (CD95) (human), the T cell viability of 2G-CAR(LS) CTLs after round III following siRNA knockdown of Fas, fold increase turned out to be 1.4 fold and the T cell viability of 2G-CAR(LS) CTLs after round III following siRNA knockdown of FasL, fold increase worked out at 1.6 fold.
“CE7scFv-IgG4hinge-CD28tm/4-1BB-zeta (short) CD171-specific chimeric receptor” returned a % CD25+CD69+ T cells after round III of tumor cell co-culture in the test with CD171 (L1CAM) (human) [1] of 42%. In the test with CD171 (L1CAM) (human) [2], this substance gave a % CD25+CD69+ T cells after round III of tumor cell co-culture of 40%; a % CD25+CD69+ T cells, stress test round I with Be2 cells of 46.8%; a % CD25+CD69+ T cells, stress test round II with Be2 cells of 47.6%; a % CD25+CD69+ T cells, stress test round III with Be2 cells of 42.1%.
